Reference: US20140087995A1 (published 2014)
Numbered stars: 1 amine (or outer) side, 2 acyl side, 3 side chain; on linkers, the order of the positions; unused ones are H or OH. Bridge positions count the residues as written; N and C are the ends. Side chains are listed from the residue outwards. Ends that are not written are not given here. * marks the point of attachment. C20 diacid = O=C(O)CCCCCCCCCCCCCCCCCCC(=O)*; γGlu = O=C(O)[C@H](CCC(=O)[*:2])N[*:1]; AEEA = NCCOCCOCC(=O)O

T1: human calcitonin receptor (human, UniProt P30988 25-474)
T1 construct: whole, on cells; Assay used cell membranes, not intact cells; also called hCTR; hCT
T1 sequence (looked up): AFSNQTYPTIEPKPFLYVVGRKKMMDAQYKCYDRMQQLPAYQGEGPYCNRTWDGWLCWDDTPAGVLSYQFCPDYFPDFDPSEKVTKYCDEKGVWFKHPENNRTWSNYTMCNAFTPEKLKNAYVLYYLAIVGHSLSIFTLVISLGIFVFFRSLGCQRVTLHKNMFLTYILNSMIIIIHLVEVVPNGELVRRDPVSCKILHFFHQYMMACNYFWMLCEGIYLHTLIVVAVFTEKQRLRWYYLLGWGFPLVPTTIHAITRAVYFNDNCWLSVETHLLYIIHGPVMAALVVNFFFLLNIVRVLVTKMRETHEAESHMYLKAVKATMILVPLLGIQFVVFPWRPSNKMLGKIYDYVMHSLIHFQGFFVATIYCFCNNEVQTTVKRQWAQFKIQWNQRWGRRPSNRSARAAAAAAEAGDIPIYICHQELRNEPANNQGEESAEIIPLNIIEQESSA

T2: human calcitonin receptor (human, UniProt P30988 25-474)
T2 construct: whole, on cells; Assay used cell membranes of the transfected BHK cells; also called hCTR; hCT
T2 sequence (looked up): T1 sequence (looked up)

T3: human amylin receptor (amylin 3(a) receptor: human calcitonin receptor with RAMP-3) (human, UniProt P30988 25-474; O60896 24-148)
T3 construct: whole, on cells; Assay used cell membranes of the Amylin 3(a)/CRE-luc BHK cells, not intact cells; also called hAmylin-R; hAmylinR
T3 sequence (looked up) 1: T1 sequence (looked up)
T3 sequence (looked up) 2: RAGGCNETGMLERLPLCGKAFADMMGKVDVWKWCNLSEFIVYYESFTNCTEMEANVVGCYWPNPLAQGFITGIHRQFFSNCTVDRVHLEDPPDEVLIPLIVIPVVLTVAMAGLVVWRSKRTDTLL

B1: N^-1-[(4S)-4-carboxy-4-(19-carboxynonadecanoylamino)butanoyl]-Gly[Arg1,His14,Arg17,Pro21,Pro27,His34]-h-amylin (peptide)
peptide: {C20 diacid-γGlu}-GRCNTATCATQRLAHFLRHSSPNFGAIPSSTNVGHNTY-NH2
modifications: disulfide 3-8
SMILES: CC[C@H](C)[C@H](NC(=O)[C@H](C)NC(=O)CNC(=O)[C@H](Cc1ccccc1)NC(=O)[C@H](CC(N)=O)NC(=O)[C@@H]1CCCN1C(=O)[C@H](CO)NC(=O)[C@H](CO)NC(=O)[C@H](Cc1c[nH]cn1)NC(=O)[C@H](CCCNC(=N)N)NC(=O)[C@H](CC(C)C)NC(=O)[C@H](Cc1ccccc1)NC(=O)[C@H](Cc1c[nH]cn1)NC(=O)[C@H](C)NC(=O)[C@H](CC(C)C)NC(=O)[C@H](CCCNC(=N)N)NC(=O)[C@H](CCC(N)=O)NC(=O)[C@@H](NC(=O)[C@H](C)NC(=O)[C@@H]1CSSC[C@H](NC(=O)[C@H](CCCNC(=N)N)NC(=O)CNC(=O)CC[C@H](NC(=O)CCCCCCCCCCCCCCCCCCC(=O)O)C(=O)O)C(=O)N[C@@H](CC(N)=O)C(=O)N[C@@H]([C@@H](C)O)C(=O)N[C@@H](C)C(=O)N[C@@H]([C@@H](C)O)C(=O)N1)[C@@H](C)O)C(=O)N1CCC[C@H]1C(=O)N[C@@H](CO)C(=O)N[C@@H](CO)C(=O)N[C@H](C(=O)N[C@@H](CC(N)=O)C(=O)N[C@H](C(=O)NCC(=O)N[C@@H](Cc1c[nH]cn1)C(=O)N[C@@H](CC(N)=O)C(=O)N[C@H](C(=O)N[C@@H](Cc1ccc(O)cc1)C(N)=O)[C@@H](C)O)C(C)C)[C@@H](C)O
notes: also called compound 100
B2: N{-1}-[(4S)-4-carboxy-4-(19-carboxynonadecanoylamino)butanoyl]-Gly[Arg1,His14,Arg17,Pro21,Pro27]-h-amylin (peptide)
peptide: {C20 diacid-γGlu}-GRCNTATCATQRLAHFLRHSSPNFGAIPSSTNVGSNTY-NH2
modifications: disulfide 3-8
SMILES: CC[C@H](C)[C@H](NC(=O)[C@H](C)NC(=O)CNC(=O)[C@H](Cc1ccccc1)NC(=O)[C@H](CC(N)=O)NC(=O)[C@@H]1CCCN1C(=O)[C@H](CO)NC(=O)[C@H](CO)NC(=O)[C@H](Cc1c[nH]cn1)NC(=O)[C@H](CCCNC(=N)N)NC(=O)[C@H](CC(C)C)NC(=O)[C@H](Cc1ccccc1)NC(=O)[C@H](Cc1c[nH]cn1)NC(=O)[C@H](C)NC(=O)[C@H](CC(C)C)NC(=O)[C@H](CCCNC(=N)N)NC(=O)[C@H](CCC(N)=O)NC(=O)[C@@H](NC(=O)[C@H](C)NC(=O)[C@@H]1CSSC[C@H](NC(=O)[C@H](CCCNC(=N)N)NC(=O)CNC(=O)CC[C@H](NC(=O)CCCCCCCCCCCCCCCCCCC(=O)O)C(=O)O)C(=O)N[C@@H](CC(N)=O)C(=O)N[C@@H]([C@@H](C)O)C(=O)N[C@@H](C)C(=O)N[C@@H]([C@@H](C)O)C(=O)N1)[C@@H](C)O)C(=O)N1CCC[C@H]1C(=O)N[C@@H](CO)C(=O)N[C@@H](CO)C(=O)N[C@H](C(=O)N[C@@H](CC(N)=O)C(=O)N[C@H](C(=O)NCC(=O)N[C@@H](CO)C(=O)N[C@@H](CC(N)=O)C(=O)N[C@H](C(=O)N[C@@H](Cc1ccc(O)cc1)C(N)=O)[C@@H](C)O)C(C)C)[C@@H](C)O
notes: also called compound 99
B3: N^-1-[(4S)-4-carboxy-4-(19-carboxynonadecanoylamino)butanoyl]-Gly[Arg1,Ala14,Arg17,Pro21,Pro27,His34]-h-amylin (peptide)
peptide: {C20 diacid-γGlu}-GRCNTATCATQRLAAFLRHSSPNFGAIPSSTNVGHNTY-NH2
modifications: disulfide 3-8
SMILES: CC[C@H](C)[C@H](NC(=O)[C@H](C)NC(=O)CNC(=O)[C@H](Cc1ccccc1)NC(=O)[C@H](CC(N)=O)NC(=O)[C@@H]1CCCN1C(=O)[C@H](CO)NC(=O)[C@H](CO)NC(=O)[C@H](Cc1c[nH]cn1)NC(=O)[C@H](CCCNC(=N)N)NC(=O)[C@H](CC(C)C)NC(=O)[C@H](Cc1ccccc1)NC(=O)[C@H](C)NC(=O)[C@H](C)NC(=O)[C@H](CC(C)C)NC(=O)[C@H](CCCNC(=N)N)NC(=O)[C@H](CCC(N)=O)NC(=O)[C@@H](NC(=O)[C@H](C)NC(=O)[C@@H]1CSSC[C@H](NC(=O)[C@H](CCCNC(=N)N)NC(=O)CNC(=O)CC[C@H](NC(=O)CCCCCCCCCCCCCCCCCCC(=O)O)C(=O)O)C(=O)N[C@@H](CC(N)=O)C(=O)N[C@@H]([C@@H](C)O)C(=O)N[C@@H](C)C(=O)N[C@@H]([C@@H](C)O)C(=O)N1)[C@@H](C)O)C(=O)N1CCC[C@H]1C(=O)N[C@@H](CO)C(=O)N[C@@H](CO)C(=O)N[C@H](C(=O)N[C@@H](CC(N)=O)C(=O)N[C@H](C(=O)NCC(=O)N[C@@H](Cc1c[nH]cn1)C(=O)N[C@@H](CC(N)=O)C(=O)N[C@H](C(=O)N[C@@H](Cc1ccc(O)cc1)C(N)=O)[C@@H](C)O)C(C)C)[C@@H](C)O
B4: N^-1-[(4S)-4-carboxy-4-(19-carboxynonadecanoylamino)butanoyl]-Gly[Arg1,His14,Arg17,Pro21,Pro27,Pro34]-h-amylin (peptide)
peptide: {C20 diacid-γGlu}-GRCNTATCATQRLAHFLRHSSPNFGAIPSSTNVGPNTY-NH2
modifications: disulfide 3-8
SMILES: CC[C@H](C)[C@H](NC(=O)[C@H](C)NC(=O)CNC(=O)[C@H](Cc1ccccc1)NC(=O)[C@H](CC(N)=O)NC(=O)[C@@H]1CCCN1C(=O)[C@H](CO)NC(=O)[C@H](CO)NC(=O)[C@H](Cc1c[nH]cn1)NC(=O)[C@H](CCCNC(=N)N)NC(=O)[C@H](CC(C)C)NC(=O)[C@H](Cc1ccccc1)NC(=O)[C@H](Cc1c[nH]cn1)NC(=O)[C@H](C)NC(=O)[C@H](CC(C)C)NC(=O)[C@H](CCCNC(=N)N)NC(=O)[C@H](CCC(N)=O)NC(=O)[C@@H](NC(=O)[C@H](C)NC(=O)[C@@H]1CSSC[C@H](NC(=O)[C@H](CCCNC(=N)N)NC(=O)CNC(=O)CC[C@H](NC(=O)CCCCCCCCCCCCCCCCCCC(=O)O)C(=O)O)C(=O)N[C@@H](CC(N)=O)C(=O)N[C@@H]([C@@H](C)O)C(=O)N[C@@H](C)C(=O)N[C@@H]([C@@H](C)O)C(=O)N1)[C@@H](C)O)C(=O)N1CCC[C@H]1C(=O)N[C@@H](CO)C(=O)N[C@@H](CO)C(=O)N[C@H](C(=O)N[C@@H](CC(N)=O)C(=O)N[C@H](C(=O)NCC(=O)N1CCC[C@H]1C(=O)N[C@@H](CC(N)=O)C(=O)N[C@H](C(=O)N[C@@H](Cc1ccc(O)cc1)C(N)=O)[C@@H](C)O)C(C)C)[C@@H](C)O
B5: N^ε1-[(4S)-4-carboxy-4-[[(4S)-4-carboxy-4-(19-carboxynonadecanoylamino)butanoyl]amino]butanoyl]-[Ser14,Arg17,Pro21,Pro27,Pro34,Glu35]-h-amylin (peptide)
peptide: K([γGlu-γGlu-C20 diacid])CNTATCATQRLASFLRHSSPNFGAIPSSTNVGPETY-NH2
modifications: disulfide 2-7; N-terminus assumed
SMILES: CC[C@H](C)[C@H](NC(=O)[C@H](C)NC(=O)CNC(=O)[C@H](Cc1ccccc1)NC(=O)[C@H](CC(N)=O)NC(=O)[C@@H]1CCCN1C(=O)[C@H](CO)NC(=O)[C@H](CO)NC(=O)[C@H](Cc1c[nH]cn1)NC(=O)[C@H](CCCNC(=N)N)NC(=O)[C@H](CC(C)C)NC(=O)[C@H](Cc1ccccc1)NC(=O)[C@H](CO)NC(=O)[C@H](C)NC(=O)[C@H](CC(C)C)NC(=O)[C@H](CCCNC(=N)N)NC(=O)[C@H](CCC(N)=O)NC(=O)[C@@H](NC(=O)[C@H](C)NC(=O)[C@@H]1CSSC[C@H](NC(=O)[C@@H](N)CCCCNC(=O)CC[C@H](NC(=O)CC[C@H](NC(=O)CCCCCCCCCCCCCCCCCCC(=O)O)C(=O)O)C(=O)O)C(=O)N[C@@H](CC(N)=O)C(=O)N[C@@H]([C@@H](C)O)C(=O)N[C@@H](C)C(=O)N[C@@H]([C@@H](C)O)C(=O)N1)[C@@H](C)O)C(=O)N1CCC[C@H]1C(=O)N[C@@H](CO)C(=O)N[C@@H](CO)C(=O)N[C@H](C(=O)N[C@@H](CC(N)=O)C(=O)N[C@H](C(=O)NCC(=O)N1CCC[C@H]1C(=O)N[C@@H](CCC(=O)O)C(=O)N[C@H](C(=O)N[C@@H](Cc1ccc(O)cc1)C(N)=O)[C@@H](C)O)C(C)C)[C@@H](C)O
notes: also called compound 120
B6: N^ε1-[2-[2-[2-[[(4S)-4-carboxy-4-(19-carboxynonadecanoylamino)butanoyl]amino]ethoxy]ethoxy]acetyl]-[Arg17,Pro21,Pro27,Pro28,Pro31]-h-amylin (peptide)
peptide: K([AEEA-γGlu-C20 diacid])CNTATCATQRLANFLRHSSPNFGAIPPSTPVGSNTY-NH2
modifications: disulfide 2-7
notes: Synthetic analogue; also called compound 53

Biological target: T1, human calcitonin receptor
Assay: ratio IC50 hCTR / IC50 hAmylin-R (reference: human amylin receptor), SPA competition assays
Summary of the method: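 Scintillation proximity competition binding on cell membranes at 35 ng/μL with SPA beads, in 50 mM Hepes pH 7.4, 1 mM CaCl2, 5 mM MgCl₂, 0.1% OA, 0.02% Tween20. Incubated 120 min at 25° C with shaking. IC₅₀ from one-site competition fit.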

Ratio hCT/hAmylin binding	Binder
65.3	B1
100	B2
26.5	{C20 diacid-γGlu}-GRCNTATCATQRLAAFLRHSSPNFGAIPSSTNVGPNTY-NH2 (disulfide 3-8)
68.6	B3
36.2	B4
45.3	B5

Biological target: T2, human calcitonin receptor
Assay: SPA radioligand competition (125I-calcitonin), membranes of BHK cells with human calcitonin receptor
Summary of the method: (§1)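 BHK hCTR membranes 35 ng/μL + SPA beads 0.05 mg/well; buffer 50 mM Hepes pH 7.4, 1 mM CaCl2, 5 mM MgCl₂, 0.1% OA, 0.02% Tween20. 120 min, 25° C., shaking. Scintillation count; IC50 by one-site binding competition.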

IC50	Binder
5.38 nM	B6

Biological target: T1, human calcitonin receptor
Assay: SPA competition with 125I-calcitonin on membranes of BHK cells with human calcitonin receptor (Assay VII)
Summary of the method: as §1

IC50	Binder
66.3 nM	B1
35 nM	B2
3 nM	{C20 diacid-γGlu}-GRCNTATCATQRLAAFLRHSSPNFGAIPSSTNVGPNTY-NH2 (disulfide 3-8)
29.2 nM	B3
7.87 nM	B4
3.44 nM	B5

Biological target: T3, human amylin receptor (amylin 3(a) …)
Assay: SPA competition with 125I-rat amylin on membranes of BHK cells with human calcitonin receptor and RAMP-3 (Assay V)
Summary of the method: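 Membranes from BHK Amylin 3(a)/CRE-luc cells (35 ng/μL final) were mixed with SPA beads and test compounds in 50 mM Hepes pH 7.4 with 1 mM CaCl2, 5 mM MgCl₂, 0.1% OA and 0.02% Tween20. Incubation ran 120 min at 25° C with shaking; IC₅₀ came from one-site competition fitting.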

IC50	Binder
1.01 nM	B1
0.348 nM	B2
0.114 nM	{C20 diacid-γGlu}-GRCNTATCATQRLAAFLRHSSPNFGAIPSSTNVGPNTY-NH2 (disulfide 3-8)
0.426 nM	B3
0.217 nM	B4
0.076 nM	B5
